Source: the supplement of paper PMC11246515
± gives the standard deviation of the averaged measurements.

Assay: total protein half-life in vivo (active degradation + dilution); higher = more stable protein
[1] = E. coli NCM3722 delta-clpP delta-lon delta-hslV, growth: N-lim chemostat, doubling time 6 h
[2] = E. coli NCM3722 delta-hslV, growth: N-lim chemostat, doubling time 6 h
[3] = E. coli NCM3722 delta-lon, growth: N-lim chemostat, doubling time 6 h
[4] = E. coli NCM3722 delta-smpB, growth: N-lim chemostat, doubling time 6 h
[5] = wild type E. coli NCM3722, growth: C-lim chemostat, doubling time 3 h
[6] = wild type E. coli NCM3722, growth: C-lim chemostat, doubling time 6 h
[7] = wild type E. coli NCM3722, growth: C-lim chemostat, doubling time 12 h
[8] = wild type E. coli NCM3722, growth: N-lim chemostat, doubling time 6 h
[9] = wild type E. coli NCM3722, growth: N-lim chemostat, doubling time 12 h
[10] = wild type E. coli NCM3722, growth: P-lim chemostat, doubling time 6 h
[11] = wild type E. coli NCM3722, growth: P-lim chemostat, doubling time 12 h
[12] = E. coli NCM3722 delta-clpP, growth: N-lim chemostat, doubling time 6 h

Sequence	total protein half-life in vivo [1] [h]	total protein half-life in vivo [2] [h]	total protein half-life in vivo [3] [h]	total protein half-life in vivo [4] [h]	total protein half-life in vivo [5] [h]	total protein half-life in vivo [6] [h]	total protein half-life in vivo [7] [h]	total protein half-life in vivo [8] [h]	total protein half-life in vivo [9] [h]	total protein half-life in vivo [10] [h]	total protein half-life in vivo [11] [h]	total protein half-life in vivo [12] [h]
MNKTITALAIMMASFAANASVLPETPVPFKSGTGAIDNDTVYIGLGSAGTAWYKLDTQAKDKKWTALAAFPGGPRDQATSAFIDGNLYVFGGIGKNSEGLTQVFNDVHKYNPKTNSWVKLMSHAPMGMAGHVTFVHNGKAYVTGGVNQNIFNGYFEDLNEAGKDSTAIDKINAHYFDKKAEDYFFNKFLLSFDPSTQQWSYAGESPWYGTAGAAVVNKGDKTWLINGEAKPGLRTDAVFELDFTGNNLKWNKLAPVSSPDGVAGGFAGISNDSLIFAGGAGFKGSRENYQNGKNYAHEGLKKSYSTDIHLWHNGKWDKSGELSQGRAYGVSLPWNNSLLIIGGETAGGKAVTDSVLITVKDNKVTVQN	5.85 ± 0.22	5.99 ± 0.77	6.24 ± 0.61	6.27 ± 1.1	3.12 ± 0.2	6.33 ± 0.044	12.6 ± 1.2	6.32 ± 0.1	11.5 ± 1.4	5.97 ± 0.41	13.9 ± 1.4	–
MLEILYQDEWLVAVNKPSGWLVHRSWLDRDEKVVVMQTVRDQIGQHVFTAHRLDRPTSGVLLMGLSSEAGRLLAQQFEQHQIQKRYHAIVRGWLMEEAVLDYPLVEELDKIADKFAREDKGPQPAVTHYRGLATVEMPVATGRYPTTRYGLVELEPKTGRKHQLRRHLAHLRHPIIGDSKHGDLRQNRSGAEHFGLQRLMLHASQLSLTHPFTGEPLTIHAGLDDTWMQALSQFGWRGLLPENERVEFSAPSGQDGEISS [P0AA41]	4.78 ± 0.18	4.87 ± 0.88	4.49	4.34 ± 0.19	3 ± 0.28	–	11.8 ± 0.17	5.27 ± 1.3	6.98	5.28 ± 0.23	10.91 ± 0.044	4.49 ± 0.16
MAAINTKVKKAVIPVAGLGTRMLPATKAIPKEMLPLVDKPLIQYVVNECIAAGITEIVLVTHSSKNSIENHFDTSFELEAMLEKRVKRQLLDEVQSICPPHVTIMQVRQGLAKGLGHAVLCAHPVVGDEPVAVILPDVILDEYESDLSQDNLAEMIRRFDETGHSQIMVEPVADVTAYGVVDCKGVELAPGESVPMVGVVEKPKADVAPSNLAIVGRYVLSADIWPLLAKTPPGAGDEIQLTDAIDMLIEKETVEAYHMKGKSHDCGNKLGYMQAFVEYGIRHNTLGTEFKAWLEEEMGIKK [P0AEP3]	4.77 ± 0.41	4.91 ± 0.62	5.41 ± 0.14	4.728 ± 0.0092	–	5.71 ± 0.23	10.8 ± 1.1	4.65 ± 0.13	7.63 ± 0.25	5.72 ± 0.074	11.6 ± 0.14	4.87 ± 0.81
MGQRIPVTLGNIAPLSLRPFQPGRIALVCEGGGQRGIFTAGVLDEFMRAQFNPFDLYLGTSAGAQNLSAFICNQPGYARKVIMRYTTKREFFDPLRFVRGGNLIDLDWLVEATASQMPLQMDTAARLFDSGKSFYMCACRQDDYAPNYFLPTKQNWLDVIRASSAIPGFYRSGVSLEGINYLDGGISDAIPVKEAARQGAKTLVVIRTVPSQMYYTPQWFKRMERWLGDSSLQPLVNLVQHHETSYRDIQQFIEKPPGKLRIFEIYPPKPLHSIALGSRIPALREDYKLGRLCGRYFLATVGKLLTEKAPLTRHLVPVVTPESIVIPPAPVANDTLVAEVSDAPQANDPTFNNEDLA	5.99 ± 1.5	1.31 ± 0.025	1.89 ± 0.25	1.185 ± 0.0061	1.89 ± 0.15	3.889 ± 0.011	4.59 ± 0.59	1.45 ± 0.16	1.77 ± 0.024	2.12 ± 0.31	4.69 ± 0.97	1.8805 ± 0.0012
MRVLVVEDNALLRHHLKVQIQDAGHQVDDAEDAKEADYYLNEHIPDIAIVDLGLPDEDGLSLIRRWRSNDVSLPILVLTARESWQDKVEVLSAGADDYVTKPFHIEEVMARMQALMRRNSGLASQVISLPPFQVDLSRRELSINDEVIKLTAFEYTIMETLIRNNGKVVSKDSLMLQLYPDAELRESHTIDVLMGRLRKKIQAQYPQEVITTVRGQGYLFELR	4.69 ± 0.2	4.056 ± 0.01	4.7 ± 0.21	4.19 ± 0.29	2.85 ± 0.13	5.04 ± 0.12	8.69 ± 1	4.33 ± 0.29	7.55 ± 0.24	5.134 ± 0.051	8.98 ± 0.26	4.2 ± 0.46
MKFVSFNINGLRARPHQLEAIVEKHQPDVIGLQETKVHDDMFPLEEVAKLGYNVFYHGQKGHYGVALLTKETPIAVRRGFPGDDEEAQRRIIMAEIPSLLGNVTVINGYFPQGESRDHPIKFPAKAQFYQNLQNYLETELKRDNPVLIMGDMNISPTDLDIGIGEENRKRWLRTGKCSFLPEEREWMDRLMSWGLVDTFRHANPQTADRFSWFDYRSKGFDDNRGLRIDLLLASQPLAECCVETGIDYEIRSMEKPSDHAPVWATFRR	5.619 ± 0.036	5.75 ± 0.011	6.04 ± 1.2	5.27 ± 0.3	3.14 ± 0.45	5.863 ± 0.013	10.9 ± 0.79	5.46 ± 0.4	10.8 ± 0.2	5.61 ± 0.2	11.9 ± 1.3	5.58 ± 0.29
